Test results published in publication PMC3591176.

Target: Bbil-TX, basic PLA2 from Bothriopsis bilineata snake venom (Bothriopsis bilineata)

crotapotin isoform F3 from Crotalus durissus cascavella rattlesnake venom (natural protein)
inhibition of the PLA2 activity of Bbil-TX (substrate 4-nitro-3-octanoyloxy-benzoic acid) after preincubation of enzyme and inhibitor for 30 min at 37°C: 50%
